Experimental findings from patent US20240132578A1 are described below.

What all share (test): cell-based or functional assay
Assay [1] deals with HIV-1 Env of isolate MGRM-D-002 (pseudovirus) (HIV-1).
Assay [2] concerns the target HIV-1 JR-CSF Env N392Q (HIV-1 (isolate JR-CSF)) (UniProt P20871).
In assay [3] the target is HIV-1 JR-CSF Env T303A (HIV-1 (isolate JR-CSF, clade B)) (UniProt P20871).
The target in assay [4] is HIV-1 Env of isolate MGRM-AE-004 (subtype AE) (HIV-1).
In assay [5] the target is HIV-1 Env of isolate MGRM-D-024 (HIV-1).
The target of assay [6] is HIV-1 Env of isolate MGRM-F1-008 (HIV-1).
For assay [7], the target named is HIV-1 Env of isolate MGRM-C-002 (HIV-1).
Assay [8] concerns the target HIV-1 Env of pseudovirus isolate MGRM-C-013 (clade C) (HIV-1).
Assay [9] concerns the target HIV-1 Env of pseudovirus isolate MGRM-C-020 (clade C) (HIV-1).
Assay [10] deals with HIV-1 Env of isolate MGRM-F1-017 (HIV-1).
Assay [11] concerns the target HIV-1 Env of isolate 98CN009 (pseudovirus) (HIV-1).
The target in assay [12] is HIV-1 Env of isolate MGRM-A-008 (subtype A) (HIV-1).
Assay [13] concerns the target HIV-1 92UG005 Env (HIV-1).

With 5136_H01 (PGT-131) (antibody), the IC50 (µg/mL), pseudovirus neutralization in assay [1] is 11.2 µg/mL; in assay [5], more than 50 µg/mL; in assay [6] it was 2.74 µg/mL; in assay [7] it was more than 50 µg/mL; in assay [10], more than 50 µg/mL; in assay [11], 4.05 µg/mL. In assay [2], the Fold IC50 increase relative to wild-type (pseudovirus neutralization) came to 0.4 fold. Moreover, in [3], the Fold IC50 increase relative to wild-type was more than 170 fold. Further, the IC50, pseudovirus neutralization in assay [4], in assay [8], in assay [9] and in assay [12] was more than 50 µg/mL throughout.
For 5147_N06 (PGT-130) (antibody), the IC50, pseudovirus neutralization in assay [13] is 0.474 µg/mL; in [4], 2.43 µg/mL; in assay [8], more than 50 µg/mL; in [9], more than 50 µg/mL; in [12] it was more than 50 µg/mL. Moreover, the IC50 (µg/mL), pseudovirus neutralization in assay [1] is 0.869 µg/mL; in assay [5], more than 50 µg/mL; in assay [6], 0.065 µg/mL; in assay [7], more than 50 µg/mL; in assay [10], more than 50 µg/mL; in assay [11], 0.136 µg/mL. The substance also gave a Fold IC50 increase relative to wild-type (pseudovirus neutralization) in assay [2] of 1.2 fold. The substance further returned a Fold IC50 increase relative to wild-type in assay [3] of more than 250 fold.
